Test: yeast display, Sf9 membrane polyspecificity reagent, FACS + sequencing; frameworks hold sequencing errors
In short: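 Synthetic nanobody libraries on Saccharomyces cerevisiae BJ5465 were galactose-induced for 36–48 hours, stained 1 hour at 4 °C with 10% biotinylated, detergent-solubilized Sf9 membrane reagent and enriched on streptavidin microbeads. FACS then separated cells into low and high (top ~1%) gates by anti-HA (expression) and streptavidin (reagent binding) fluorescence. Genes were colony-PCR amplified, MiSeq 2 × 250 sequenced and CDR-length filtered. A clone's polyreactivity label is that of its gate of origin.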

Sequence	polyreactivity (PSR sort gate)
QVQLVESGGGLVQAGGSLRLSCAASGFIFSYYTMGWYRQAPGKERELVAAISRRGGSTYYADSVKGRFTISRDNAKNTVYLQMNSLKPEDTAVYYCAAPRDWDAGDYWGQGTQVTVSS	high polyreactivity
QVQLVESGGGLVQAGGSLRLSCAASGRIFGCYAMGWYRQAPGKERELVAAISSGGNTKYADSVKGRFTISRDNAKNTVYLQMNSLKPEDTAVYYCAAKFAQPDYRYDYWGQGTQVTVSS	high polyreactivity
QVQLQESGGGLVQAGGRLSLSRAASGFISGTYCMGCYRQTPGQDREFVAGIGNGAITYYADSAKGCFTISRDNAKNAVYLQMNSLKQEETAVYYCAADGQWYYAPFRGGDYENDYWGQGTQVTVSS	low polyreactivity
QVQLVESGGGLVQAGGSLRLSCAASGFIFNSYAMGWYRQAPGKERELVAAISRRGSSTYYADSVKGRFTISRDNAKNTVYLQMNSLKPEDTAVYYCAKRDRSTSWYLRDYWGQGTQVTVSS	high polyreactivity
QVQLVESGGGLVQAGGSLRLSCAASGRTFRDYTMGWYRQAPGNERELVAAITSTGDTNYADSVKGRFTISRDNAKNTVYLQMNSLKPEDTALNYCATQTGEEYQAPLIYDYWGQGTQVTVSS	low polyreactivity
QVQLVESGGGLVQAGGSLRLSCAASGFTFGYYAMGWYRQAPGKERELVAAINWSGGRTYYADSVKGRFTISRDNAKNTVYLQMNSLKPEDTAVYYCAASSRTKLYYWGQGTQVTVSS	high polyreactivity
QVQLVESGGGLVQAGGSLRLSCAASGSTFYPYAMGGYRQAPGKERELVARITQNGGSTYYADSVKGRFKISRDNAKNPVYLQMNSLKPEDTAVYYCADRWISVLSYGKYDYCGQGTQVTVSS	high polyreactivity
QVQLVESGGGLVQAGGSLRLSCAASGSIFHIYAMGWYRQAPGKERELVAAISSGGRTNYADSVKGRFTISRDNAKNTVYLQMNSLKPEDTAVYYCAADWIYLPTRNYRVRVDYWGQGTQVTVSS	high polyreactivity
QVQLVESGGGLDQAGGRLRLSCAASGITFGRNTMGWYRQSPGKERELVAAIDSGGNTYADSVKGRFTISRDNAKNTVYLQMNSLKPEDTAVYYCAVDGGEFSSYGYWGQGTQVTVSS	low polyreactivity
QVQLVESGGGLVQAGGSLRLSCAASGFTFYGYGMGWYRQAPGKERELVAGISSGGGSTIYADSVKGRFTISRDNAKNTVYLQMNSLKPEDTAVYYCAADYWPYSYDTYPAEFDYWGQGTQVTVSS	low polyreactivity
QVQLVESGGGLVQAGGSLRLRCAASGSTFDGNAMGWYRQAPGKETELVAAITSGGSTNYADSVKGRFTISRDNANNTVYFQMYSLKPEDTAVYYCAAYTVSFSILYDYWGQGTQVTLSS	low polyreactivity
QVQLVESGGGLVQAGGSLRLSCAASGRTFYYYAMGWYRQAPGKERELVAAISGSGGSTYYADSVKGRFTISRDIAKNTVYLQMNSLKPEDTAVYYCAASGPRRRYDYWGQGTQVTVSS	high polyreactivity
QVQLVESGGGLVQAGGSLRLSCAASGFTVHDYAMGWYRQAPGKERELVAAISFSGGRTYYADSVKGRFSISRDNAKNTVYLQMNSLKPEDTAVYYCNAKGQRIKRWRGYWGQGTQVTVSS	high polyreactivity
QVQLVESGGGLVQAGGSLRLSCAASGFTFRKNAMGWYRQAPGKERELVAAISSGSGSTYYADSVKGRFTISRDNAKNTVYLQMNSLKPEDTAVYYCNSEAYYTTGYPTSDVFDRYDYWGKGTQVTVSS	low polyreactivity
QVQLVESGGGLVQAGGRLRLICAASGRIYGYNTMGWYRQAPGKERDFDAAINSGGRTYYADSVKGRFTISRDNAKNTVYLQMNSLKPEDTAVYYCAAGKGRWISGLYYGARYDYWGQGTQVTVSS	high polyreactivity
QVQLVDSGGGLVQAGGSLRLSCAASGSTFKYYGMGWYRQAPGKERELVASISSSGTRTYYADSVKGRFTISRDNAKNTVYLQMNSLKAEDTAVYYCAADSYATYFLYDSWGQGTQVTVSS	low polyreactivity
QVQLVESGGGLVQAGGSLRLICAASGSTFGPYDMGWYRQAPGKERELVADITSGGSTYYADSVKGRFTISRDNAKNTVYLQMNSLKPEDTAVYYCAADRVWPYYQYDYWGQGTQVTVSS	low polyreactivity
QVQLVESGGGLVQAGGSLRLSCAASGFTFAYYAMGWYRQAPGKERELVAAITGSGGRTYYADSVKGRFTISRDNAKNTVYLQMNSLKPEDTAVYYCAADRTVYYLSRTGYDYWGQGTQVTVSS	high polyreactivity
QVQLVESGGGLVQAGGSLRLSSAASGRIFQRYAMGCYRQAPGKERELVAAISGSGGRTYYADSVKGRFTISRDNAKNTVYLQLNSLKPDDSAVYYCAAYPSYYADSGLRYDYWGQGTQVTVSS	high polyreactivity
QVQLVESGGGLVQAGGSLRLSCAASGRIFRWNVTGWYRQAPGKETELDASITSGSSTNYADSVKGRFTISRDNAKYTVFLQMNSLKPEDTAVYYSAAYGVQTYRRYSYPRGFDYWGQGTQVTVSS	high polyreactivity

Sequence	polyreactivity (PSR sort gate)
QVQLVESGGGLVQAGGSLRLSCAASGRIVGINVMGWYRQAPGKERELVAAISYRTGSTYYADSVKGRFTISRDNAKNTVYLQMNSLKPEDTAVYYCDAQRRIRTAWYDYWGQGTQVTVSS	high polyreactivity
QVQLVESGGGLVQAGGSLRLSCAASGSTFPYYTMGGYRQAPGKERELVAAISWRGGSTYYADTVKGRFSISRDNAKNTVYLQMNSLKPEDTAVYYCAARYGVFGYDYWGQGTQVTVSS	high polyreactivity
QVQLVESVGGLVQAGGSLRLSCAASGNTFSLYAMGWYSQAPGKERELVAAITWITGSTDYADSVKGRFTISRDNAKNTVYLQMNSLKPEDTAVYYCAADGDFSWFYSYETGWIEYDYCGQGTQVTVSS	low polyreactivity
QVQLVESGGGLVQAGRSLRLSCAASGFTFVWYAMGWYRQAPGTERELVAAISRRGTRTYYADSVKGRFTISRDNAKNTVYLQMNSLKPEDTAVYYCAASNGYQAVTYDYWGQGTQVTVSS	high polyreactivity
QVQLVESGGGLVQAGGSLRLSCAASGRIFPTYAMGWYRQAPGKERELVAGITSGGRTNYADSVKGRFTISRDNAKNTVYLQMNSLKQEDTAVYYCDKRVWPRDQYGKRNPRMDYWGQGTQVTVSS	high polyreactivity
QVQLVESGGGLVHAGGSLRLSCAASGSIFVVYTMGWYIQAPGKERELVADISASGGRTYYADSVKGRFTISSDNAKNTVYLKMNRLKPEDTAVYYCARVWYSSYSSESYSDHDYWGQGTQGTVSS	high polyreactivity
QVQLVESGGGLVQAGGSLRLSCAASGIISGDYAMAWYRQAHGKERELVARITSGDSTNYADSVKGRFTISRDNAKNTVYLQMNSLKPEDTAVYYCAADRVWAYWTYGYWGQGTQVTVSS	low polyreactivity
QVQLVESGGGLVQAGGSLRLSCAASGNIFRINAMGWYRQAPGKERELVAAISRSVGSTYADSVKGRFTISRDNAKNTVYLQMNSLKPEDTAVYYCNARGRTQQRWVDYWGQGTQVTVSS	high polyreactivity
QVQLQERGGGLVQTGGSLSLSCEASGTISYSDSMCWYRQAPRKERELVAAIARGGITNYAYSVKGRFTISRDNAKNTVYLQMNSLKPEDTAVYYCADLSSRYAQFDYWGQGTQVTVSS	low polyreactivity
QVQLVESGGGLDQAGGSLRLSCAASGSIFESYAMGWYRQAPGKERELVAAITKRGGSTYYADSVKGRFTISRDNAKNTVYLQMNRLKPEDTAVYYCNASWPGIGPIYDYWGQGTQVTVSS	low polyreactivity
QVQLVESGGGLVQAGGSLRLSCAASGYTFYPYAMGWYRQAPGKERELVAAISYSGGRTYYADSVKGRFTISRDNAKNTVYLQMNSLKPEDTAVYYCAADSGRYRMYYWGQGTQVTVSS	high polyreactivity
QVQLVESGGGLVQAGGSLRLSCAASGFTFTANGMGWYIQAPGKERELLAAINWSGSRTYYADSVKGRFTISRDNAKNTVYLQMNSLKPEDTAVYYCNTATSKSSYRHYDYWGQGTQVTVSS	high polyreactivity
QVQLVESGGGLVQAGGSLRLSCASSGSIFKAYAMGLSRQAPGKERELVAAIRGSGGRTYYADSVKGRFTISRDYAKNTVYLQMNSLKPEDTAVYYCNTVRSTPNGLDYDYWGQGTQVTVSS	low polyreactivity
QVQLVESGGGLVQAGGSLRLSCAASGSTFRRYAMGWYRPAPGKERELVAVITSRGGSTYYADSVKGRFTISRDNAKNTVYLQMNSLKPEDTAVYYCAAGYTSGYWANHYTPRFYYWGQGTQVTVSS	high polyreactivity
QVQLVESGGGLVQAGGSLRLSCAASGRIFYTNAMGWYRPAPGKERELVAAITRSGGRTYYADSVKGRFTISRDNAKNTVYLQMNSLKPEDTGVYYCAKVGYGHTGMGYWGQGTQVTVSS	high polyreactivity
QVQLVESGGGLVQAGGSLRLTCAASGNTFVGNAMGWYRQAPGKERELVAAISRRGGSTYYADSVKGRFTISRDYAKNTVYLQMNSLKPEDTAEYYCAVGWAGRYDYWGQGTQVTVSS	low polyreactivity
QVQLVESGGGLVQAGGSLRLSCAASGSTFSRYAMGWYRQAPGKERELVAAITSSGGSSYYADSVKGRFTISRDNAKNTVYLQMNSLKPEDTAVYYCAASYQVRYDYWGQGTQVTVSS	high polyreactivity
QVQLVESGGGLVQAGGSLRLSCAASGRTFVIYAMGWYRQAPGKASELVAGIDSGTSTYADSVKGRFTISRDNAKNTVYLQMNSLKPEDTAVYYCAADFAPDGSGWYIPGDYDSWGQGTQVTVSS	low polyreactivity
QVQLVESGGGLVQAGGSLRLSCAASGRIFGAYAMGWYRQAPGKERELVATITKRGGSTFYADSVKGRFTISRDNAKNTVYLQMNSLKPEDTAVYYCAVSSFYRGRYDYWGQGTQVTVSS	high polyreactivity
QVQLVESGGGLVQAGGSLRLSCAASGFTFSRYAMGWYRPAPGKERELVAAISTRGGRTYYADSVKGRFTISRDNAKNTVYLQMNSLKPEDTAVYYCAADATVGSSDYWGQGTQVTVSS	high polyreactivity

— the nanobody polyreactivity screen of Harvey et al. (2022)
